The values that follow come from PMC10120048.

This assay deals with Cytochrome bX. The experiment in a line: native MS; 5 µM purified CytbX in 0.2 M ammonium acetate pH 8.0 with lauryldimethylamine oxide at 2x critical micelle concentration; Q-Exactive UHMR; dimer of the protein with itself.

As usually defined, the stoichiometry N is a count of units in the complex or per binding partner.

Cytochrome bX displayed a stoichiometry N of 2.
